Experimental data: patent publication US20090123479A1 (published 2009)
One block for each binder: values may come before it.

Legend:
recombinant human IL-23 [1] = biological target: T1, recombinant human IL-23 (human, UniProt Q9NPF7 20-189; P29460 23-328); test: SPR (Biacore T100), purified antibody captured on anti-human IgG, IL-23 analyte, 1:1 model
T1 construct: also called hIL-23
T1 sequence 1: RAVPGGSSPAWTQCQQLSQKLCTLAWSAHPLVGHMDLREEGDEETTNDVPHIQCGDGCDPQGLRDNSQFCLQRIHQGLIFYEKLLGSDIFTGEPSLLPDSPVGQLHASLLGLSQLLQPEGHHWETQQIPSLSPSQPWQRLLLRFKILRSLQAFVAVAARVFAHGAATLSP
T1 sequence 2: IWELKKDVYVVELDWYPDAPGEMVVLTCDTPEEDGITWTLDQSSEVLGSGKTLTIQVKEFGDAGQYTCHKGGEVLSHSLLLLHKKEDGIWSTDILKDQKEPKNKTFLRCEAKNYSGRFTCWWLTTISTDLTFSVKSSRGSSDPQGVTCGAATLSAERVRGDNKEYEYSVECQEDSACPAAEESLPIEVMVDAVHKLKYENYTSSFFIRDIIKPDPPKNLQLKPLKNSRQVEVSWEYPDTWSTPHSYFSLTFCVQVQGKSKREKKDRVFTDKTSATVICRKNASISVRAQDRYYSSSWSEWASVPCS
Method: Biacore analysis was carried out using a capture surface on a CM5 chip. Anti-human IgG (BR-1008-39) was used as the capturing agent. Anti-human IgG was coupled to a CM5 biosensor chip by primary amine coupling. Humanized antibody was captured on this immobilised surface and defined concentrations of IL-23 were passed over this captured surface. An injection of buffer over the captured antibody surface was used for double-referencing. […] T100 Biacore machine was used to generate the data; all runs were carried out at 25° C. using HBS EP. Data was analysed using the software inherent to the machine and fitted to the 1:1 model of binding. Tables 7 and 8 detail the IL-23 binding analysis carried out on the 8C92H6.HC1LC1 chimera and selected humanized variants in two separate experiments. Data presented in Tables 7 and 8 are from purified antibody samples. The data shown for the humanized variants is representative of a number of runs. The chimeric mAb (8C9H6.HC1LC1) was only run once in each experiment, so data shown for this mAb is from that one run.

recombinant human IL-23 [2] = biological target: T1, recombinant human IL-23; test: IL-23/IL-23R inhibition ELISA (first protocol, OD490): plate coated with human IL23R Fc chimera, antibody pre-incubated with constant human IL-23, bound IL-23 detected with biotinylated anti-human IL-12; tissue culture supernatant
Method: (§1) Chimeric and humanized mAbs were assessed for their ability to neutralise human IL-23 binding to human IL-23 receptor, and cyno IL23 binding to human IL23 receptor. Plates were coated with human IL23R Fc chimera at 1 μg/diluent (bicarbonate buffer). 50 μl/well of this mixture was incubated overnight at 4° C. The plates were then washed twice with Tris Buffered Saline with 0.05% Tween 20 (TBST). Plates were blocked with 1% BSA TBST 100 μl/well for a minimum of 1 hour at room temperature. The plates were then washed twice with Tris Buffered Saline with 0.05% Tween 20 (TBST). Various concentrations of antibody were incubated in a separate plate with a constant concentration of IL-23 for 1 hour at room temperature. 50 ul of each mixture were transferred to the assay plate and incubated at RT for 1 hr. They were then washed twice with Tris Buffered Saline with 0.05% Tween 20 (TBST). Bound IL23 was detected by anti human 1L12 Biotin labelled Ab (R&D systems BAF219) diluted to 100 ng/ml in 1% BSA TBST. 50 μl/well of the biotinylated antibody was added and incubated at RT for 1 hour. The plates were then washed twice with Tris Buffered Saline with 0.05% Tween 20 (TBST). ExtrAvidin-Peroxidase (Sigma E2886) was diluted 1/1000 in 1% BSA TBST, 50 μl/well was added to the plates. […] The plate was read at OD490 nm using the SOftmaxPRO versamax plate reader.

recombinant human IL-23 [3] = biological target: T1, recombinant human IL-23; test: IL-23/IL-23R inhibition ELISA (first protocol, OD490): plate coated with human IL23R Fc chimera, antibody pre-incubated with constant human IL-23, bound IL-23 detected with biotinylated anti-human IL-12; purified antibody
Method: as §1

Kd (recombinant human IL-23 [1]): 0.194 nM | koff (recombinant human IL-23 [1]): 0.000237 s⁻¹ | kon (recombinant human IL-23 [1]): 1.22e+06 M⁻¹ s⁻¹
B1: A3M0 (antibody, human IgG1, kappa, V domains shown)
VH: QVQLVQSGAEVKKPGSSVKVSCKASGYTFTSYGITWVRQAPGQGLEWMGENYPRSGNTYYNEKFKGRVTITADKSTSTAYMELSSLRSEDTAVYYCARSEFISTVVAPYYYALDYWGQGTLVTVSS
VL: DIVMTQSPDSLAVSLGERATINCKASKKVTIFGSISALHWYQQKPGQPPKLIYNGAKLESGVPDRFSGSGSGTDFTLTISSLQAEDVAVYYCLQNKEVPYTFGGGTKVEIKR
notes: Full length chains; also called humanized mAb A3M0

IC50 (read off the curve) (recombinant human IL-23 [2]): ~0.006 µg/mL | IC50 (read off the curve) (recombinant human IL-23 [3]): ~0.08 µg/mL
B2: chimeric 8C92H6 HC1LC1 (antibody, V domains shown)
VH: QVQLQQSGAELARPGTSVKLSCKASGYTFTSYGITWVKQRTGQGLEWIGENYPRSGNTYYNEKFKGKATLTADKSSSTAYMELRSLTSEDSAVYFCARCEFISTVVAPYYYALDYWGQGTSLVTVS
VL: DIVLTQSPASLAVSLGQKATISCKASKKVTIFGSISALHWYQQKPGQPPKLIYNGAKLESGVSARFSDSGSQNRSPFGNQLSFTLTIDPVEADDAATYYCLQNKEVPYTFGGGTKLEIKR
notes: Murine variable regions with human constant regions; also called 8C92H6.HC1LC1 Chimera; 8C9 chimera
